Measured values published in paper doi:10.1101/2021.07.22.452893 (bioRxiv, 2021).

B1: Complement factor H (natural protein, human, UniProt P08603 19-1231, looked up)
chain: EDCNELPPRRNTEILTGSWSDQTYPEGTQAIYKCRPGYRSLGNVIMVCRKGEWVALNPLRKCQKRPCGHPGDTPFGTFTLTGGNVFEYGVKAVYTCNEGYQLLGEINYRECDTDGWTNDIPICEVVKCLPVTAPENGKIVSSAMEPDREYHFGQAVRFVCNSGYKIEGDEEMHCSDDGFWSKEKPKCVEISCKSPDVINGSPISQKIIYKENERFQYKCNMGYEYSERGDAVCTESGWRPLPSCEEKSCDNPYIPNGDYSPLRIKHRTGDEITYQCRNGFYPATRGNTAKCTSTGWIPAPRCTLKPCDYPDIKHGGLYHENMRRPYFPVAVGKYYSYYCDEHFETPSGSYWDHIHCTQDGWSPAVPCLRKCYFPYLENGYNQNYGRKFVQGKSIDVACHPGYALPKAQTTVTCMENGWSPTPRCIRVKTCSKSSIDIENGFISESQYTYALKEKAKYQCKLGYVTADGETSGSITCGKDGWSAQPTCIKSCDIPVFMNARTKNDFTWFKLNDTLDYECHDGYESNTGSTTGSIVCGYNGWSDLPICYERECELPKIDVHLVPDRKKDQYKVGEVLKFSCKPGFTIVGPNSVQCYHFGLSPDLPICKEQVQSCGPPPELLNGNVKEKTKEEYGHSEVVEYYCNPRFLMKGPNKIQCVDGEWTTLPVCIVEESTCGDIPELEHGWAQLSSPPYYYGDSVEFNCSESFTMIGHRSITCIHGVWTQLPQCVAIDKLKKCKSSNLIILEEHLKNKKEFDHNSNIRYRCRGKEGWIHTVCINGRWDPEVNCSMAQIQLCPPPPQIPNSHNMTTTLNYRDGEKVSVLCQENYLIQEGEEITCKDGRWQSIPLCVEKIPCSQPPQIEHGTINSSRSSQESYAHGTKLSYTCEGGFRISEENETTCYMGKWSSPPQCEGLPCKSPPEISHGVVAHMSDSYQYGEEVTYKCFEGFGIDGPAIAKCLGEKWSHPPSCIKTDCLSLPSFENAIPMGEKKDVYKAGEQVTYTCATYYKMDGASNVTCINSRWTGRPTCRDTSCVNPPTVQNAYIVSRQMSKYPSGERVRYQCRSPYEMFGDEEVMCLNGNWTEPPQCKDSTGKCGPPPPIDNGDITSFPLSVYAPASSVEYQCQNLYQLEGNKRITCRNGQWSEPPKCLHPCVISREIMENYNIALRWTAKQKLYSRTGESVEFVCKRGYRLSSRSHTLRTTCWDGKLEYPTCAKR

Legend:
[1] = target: Complement factor H (human) (UniProt P08603); test: ELISA
PPACK-thrombin = test: SPR
fibrinogen = target: T1, fibrinogen (UniProt P02671-2 20-644; P02675 31-491; P02679-2 27-437); test: SPR
T1 sequence (looked up) 1: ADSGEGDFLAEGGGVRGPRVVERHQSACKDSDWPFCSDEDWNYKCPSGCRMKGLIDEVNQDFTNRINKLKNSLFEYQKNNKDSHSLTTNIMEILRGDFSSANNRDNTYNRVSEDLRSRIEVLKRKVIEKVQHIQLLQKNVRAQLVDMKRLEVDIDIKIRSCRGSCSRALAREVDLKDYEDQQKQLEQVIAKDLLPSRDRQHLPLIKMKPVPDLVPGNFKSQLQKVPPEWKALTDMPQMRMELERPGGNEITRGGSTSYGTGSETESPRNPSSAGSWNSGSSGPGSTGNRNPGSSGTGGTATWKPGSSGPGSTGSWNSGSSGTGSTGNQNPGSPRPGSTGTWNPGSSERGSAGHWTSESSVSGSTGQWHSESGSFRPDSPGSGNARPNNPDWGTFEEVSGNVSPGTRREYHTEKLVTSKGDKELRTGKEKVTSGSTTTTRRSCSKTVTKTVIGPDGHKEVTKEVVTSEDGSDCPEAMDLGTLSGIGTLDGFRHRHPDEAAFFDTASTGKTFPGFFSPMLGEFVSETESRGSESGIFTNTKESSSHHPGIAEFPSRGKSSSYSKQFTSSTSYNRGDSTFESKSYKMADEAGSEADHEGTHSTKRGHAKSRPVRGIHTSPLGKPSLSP
T1 sequence (looked up) 2: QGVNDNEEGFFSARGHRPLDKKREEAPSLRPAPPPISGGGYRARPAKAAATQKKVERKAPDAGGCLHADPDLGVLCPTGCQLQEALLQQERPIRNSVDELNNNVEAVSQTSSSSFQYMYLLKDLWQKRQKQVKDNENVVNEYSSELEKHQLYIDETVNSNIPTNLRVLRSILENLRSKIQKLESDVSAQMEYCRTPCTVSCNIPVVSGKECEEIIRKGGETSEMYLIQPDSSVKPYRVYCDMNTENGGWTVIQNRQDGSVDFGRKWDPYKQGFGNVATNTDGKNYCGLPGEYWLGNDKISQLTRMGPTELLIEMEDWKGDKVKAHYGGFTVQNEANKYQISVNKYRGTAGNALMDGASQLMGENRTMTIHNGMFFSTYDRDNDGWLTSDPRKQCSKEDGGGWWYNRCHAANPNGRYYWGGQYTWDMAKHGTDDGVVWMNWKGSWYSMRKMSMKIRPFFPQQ
T1 sequence (looked up) 3: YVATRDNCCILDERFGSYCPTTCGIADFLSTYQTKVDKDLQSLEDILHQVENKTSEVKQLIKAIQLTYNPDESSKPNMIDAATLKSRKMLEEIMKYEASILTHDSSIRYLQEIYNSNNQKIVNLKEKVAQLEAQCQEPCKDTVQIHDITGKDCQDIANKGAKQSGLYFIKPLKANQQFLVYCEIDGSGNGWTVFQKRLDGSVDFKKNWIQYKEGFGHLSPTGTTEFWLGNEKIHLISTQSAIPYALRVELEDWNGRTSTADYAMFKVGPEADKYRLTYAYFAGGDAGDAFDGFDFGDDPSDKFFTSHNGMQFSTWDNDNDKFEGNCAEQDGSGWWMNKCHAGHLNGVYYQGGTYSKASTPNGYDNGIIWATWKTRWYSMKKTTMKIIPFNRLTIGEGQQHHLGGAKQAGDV

Molecule	FH-thrombin complex formed in plasma [1] [nM]	Kd (PPACK-thrombin) [nM]	Kd (fibrinogen) [nM]
PPACK-thrombin (enzyme)	62	–	–
B1	–	29.7	38.2
